Assay results from US20100068145A1.

Molecular target: Collagen I
Experiment: cell-based or functional assay

B1: GPVI-CD133 construct (bispecific fusion protein: soluble GPVI-Fc chemically conjugated via SPDP to the CD133-reactive monoclonal antibody W6B3C1) (protein, part only; not given: Fc and anti-CD133 antibody chains, human, not shown: a dimerising Fc or GST)
chain, part: QSGPLPKPSLQALPSSLVPLEKPVTLRCQGPPGVDLYRLEKLSSSRYQDQAVLFIPAMKRSLAGRYRCSYQNGSLWSLPSDQLELVATGVFAKPSLSAQPGPAVSSGGDVTLQCQTRYGFDQFALYKEGDPAPYKNPERWYRASFPIITVTAAHSGTYRCYSFSSRDPYLWSAPSDPLELVVTGTSVTPSRLPTEPPSSVAEFSEATAELTVSFTNKVFTTETSRSITTSPKESDSPAGPARQYYTK
modifications: amino groups modified with SPDP (N-succinimidyl 3-(2-pyridyldithio)-propionate), reduced with DTT and conjugated to the SPDP-modified CD133 antibody
B1 was tested, and the adhesion of EPCs (CD34+ cells) to immobilized collagen I, flow chamber model (2,000 sec^-1), fold against collagen alone was 10 fold and the adhesion of EPCs (CD34+ cells) to immobilized collagen I, static adhesion assay, fold against collagen alone was 5 fold.
